Experimental data taken from US20110280881A1, “NOVEL ANTI-HSP90 MONOCLONAL ANTIBODY” (RIKEN, priority 2010, published 2011).

Columns and labels:
[1] = system: cell surface HSP90α and β; experiment: Immunoprecipitation of cell surface HSP90 from DC2.4 living cells; type: binding; details: DC2.4 living cells incubated with antibody on ice
Protocol: Mammalian HSP90 occurs in two isoforms: HSP90α and β. The following experiment was performed to determine whether not only HSP90α but also HSP90β is recognized by the antibody of the present invention. First, DC2.4 living cells were incubated along with an antibody on ice using 6H8, 2A6 or normal mouse IgG as a negative control. After being thoroughly washed to remove the unreacted antibody, the cells were lysed; the lysate was centrifuged at 10,000×g, and the resulting supernatant was incubated along with Protein G-Sepharose. The bound material was subjected to SDS-PAGE, after which blotting was performed using an anti-HSP90α antibody (SPS-771, Assay designs), an anti-HSP90β antibody (PB-118-P1, Neomarkers), or an antibody that recognizes both HSP90α and β (6B1C4, another antibody obtained in Example 1).

OT-I CD8+ T cells [2] = experiment: In vivo OT-I CD8+ T cell proliferation by 6H8-OVA after 6H8 antibody given in advance; design: species or system mouse; details: 6H8 antibody 20 μg in advance, 6H8-OVA (0.3 mg), tail vein, 72 hours
Protocol: The 6H8 antibody or IgG2a [normal mouse IgG2a (nmIgG2a), 20 μg] was diluted with 200 μl of PBS and administered to B6 mice from the tail vein. As a control, a group of animals that received PBS alone was also prepared.
Subsequently, CFSE-labeled OT-I CD8^+ T cells ([…]) were suspended in 200 μl of RPMI and administered from the tail vein. Concurrently, 6H8-OVA (0.3 mg) diluted with 200 μl of PBS was administered from the tail vein. As a control, a group of animals that received PBS alone was also prepared.
72 hours later, splenocytes were recovered from each recipient mouse, and decay of CFSE intensity were measured using FACS Calibur (BD Biosciences) to confirm the proliferation of transferred cells.

[3] = system: GM-CSF-dependent bone marrow-derived dendritic cells; experiment: Cytokine production from bone marrow-derived dendritic cells on immobilized 6H8 antibody; type: cell-based; details: antibody immobilized on 96-well plate, 12 hours
Protocol: (1) […] of the 6H8 antibody diluted in PBS (10 mg/ml) was added to a 96-well flat plate (Corning Incorporated, product number 3596), and the plate was treated at 4° C. overnight. (2) The plate was washed twice with […] of PBS to remove the excess 6H8 antibody. (3) On day 5 after induction, GM-CSF-dependent bone marrow-derived dendritic cells were added to the plate from (2) at 1×10^5/well and cultured in an incubator at 37° C. with 5% CO2. (4) 12 hours after the start of cultivation, the supernatant was recovered; the amounts of cytokines and chemokines in the supernatant were determined according to a standard protocol using the Bio-Plex suspension array system with 23-Plex Panel (Bio-rad, 171-F11241).

OT-I CD8+ T cells [4] = experiment: In vitro cross-presentation assay, DC2.4 cells with OT-I CD8+ T cells, IFNγ; type: cell-based, mouse
Protocol: A cross-presentation assay was performed using each fraction as an antigen. DC2.4 cells were pulsed with 5 μg/ml (30 μg/ml, only for the fraction 33) of each fraction or 1 mg/ml of free OVA for 3 hours. […]
Next, DC2.4 cells were pulsed with a series of doses of 6H8-OVA (fractions 15 to 19) and free OVA (fraction 33) and incubated along with OT-I CD8^+ T cells and OT-II CD4^+ T cells [splenocytes of an OT-II mouse were recovered, and CD11b-positive cells were removed according to a standard protocol using BD IMag anti mouse CD11b magnetic particles DM (BD Biosciences Pharmingen, 558013); next, CD4-positive cells were purified according to a standard protocol using BD IMag anti mouse CD4 particles DM (BD Biosciences Pharmingen, 551539); the cells obtained were used as the OT-II CD4^+ T cells], and the amount of IFNγ secreted from T cells was measured, whereby the cross-presentation potential of 6H8-OVA was evaluated.

cell surface HSP90 = experiment: FACS of 6H8-OVA bound to DC2.4 and DC2.4L cells with anti-OVA antibody; type: binding
Protocol: Furthermore, using DC2.4L cells lacking cell surface HSP90 (a line detectable with 6H8 antibody, and showing decreased expression levels of cell surface HSP90 and H-2K^b; obtained during cultivation of DC2.4 and established by passage culture), the specificity of 6H8-OVA for cell surface HSP90 was examined. DC2.4 and DC2.4L cells were incubated along with the fractions 15 to 19 containing 6H8-OVA (mixture) (30 μg/ml), after which the cells were stained with the biotinylated anti-OVA monoclonal antibody and PE-Cy5 streptavidin, and analyzed by FACS.

OT-I CD8+ T cells [5] = experiment: In vivo differentiation of transferred OT-I CD8+ T cells into memory T cells (CD44); design: species or system mouse; details: 3 μg tail vein, 96 hours, compared with group that did not receive 6H8-OVA
Protocol: (1) 2×10^6 CD8^+ cells of an OT-I/CD45.1 mouse were transferred to a C57BL/6 mouse from the tail vein, with 3 μg of 6H8-OVA or PBS administered from the tail vein concurrently. (2) 96 hours later, the mouse spleen was recovered, and 2×10^6 splenocytes were stained with the following antibodies in a 96-well round-bottomed plate for 30 minutes (while cooling on ice).
PE-anti-mouse/human CD44 (eBioscience: Cat No. 12-0041), concentration: 1 μg/ml, amount used: 100 μl.
Biotin-anti-CD45.1 (eBioscience: 13-0453), concentration: 2.5 μg/ml, amount used: 100 μl.
(3) After being washed twice with PBS, the cells were stained with the following antibody for 30 minutes (while cooling on ice).
Streptavidin-APC (BioLegend: 405207), concentration: 0.2 μg/ml, amount used: 100 μl.
(4) After being washed twice with Annexin-binding buffer, the cells were stained with FITC-Annexin V using the Annexin V FITC reagent for 10 minutes (while cooling on ice).
(5) Fluorescence was determined using FACS Canto (BD).

B1: 6H8: anti-HSP90 monoclonal antibody produced by hybridoma FERM BP-11222; epitope … (antibody)
VH: QVQLQQSGPELVKPGASVRISCKASGYTFTSYYIHWVKQRPGQGLEWIGWIYPGNVNTKYNEKFKGKATLTADKSSSTAYMQLSSLTSEDSAVYFCARYGNYPFAYWGQGTLVTVSAAKTTAPSVYPLAPVCGDTTGSSVTLGCLVKGYF
VL: DVVMTQTPLSLPVSLGDQASISCRSSQSLVHSNGNTYLHWYLQKPGQSPKLLIYKVSNRFSGVPDRFSGSGSGTDFTLKISRVEAEDLGVYFCSQSTHVPPTFGGGTKLEIKRADAAPTVSIFPPSSEQLTSGGASVVCFLNNFYPKDINVKWKIDGS
For B1, the “recognition of cell surface HSP90α and β on living cells (immunoprecipitation)” value [1] was “recognized”, the “effect on promotion of proliferation of CD8+ T cells by 6H8-OVA” value (OT-I CD8+ T cells [2]) was “enhanced” and the “production of IL-1α, IL-1β, IL-2, IL-4, IL-9, IL-10, IL-12(p40), IL-12(p70), IL-13, G-CSF, GM-CSF, KC, MCP-1, MIP-1α, MIP-1β, RANTES” value [3] was “induced”.

B2: 6H8-OVA: high molecular weight conjugate of the 6H8 antibody and maleimide-activated OVA (conjugate)
VH: QVQLQQSGPELVKPGASVRISCKASGYTFTSYYIHWVKQRPGQGLEWIGWIYPGNVNTKYNEKFKGKATLTADKSSSTAYMQLSSLTSEDSAVYFCARYGNYPFAYWGQGTLVTVSAAKTTAPSVYPLAPVCGDTTGSSVTLGCLVKGYF
VL: DVVMTQTPLSLPVSLGDQASISCRSSQSLVHSNGNTYLHWYLQKPGQSPKLLIYKVSNRFSGVPDRFSGSGSGTDFTLKISRVEAEDLGVYFCSQSTHVPPTFGGGTKLEIKRADAAPTVSIFPPSSEQLTSGGASVVCFLNNFYPKDINVKWKIDGS
chain: GSIGAASMEFCFDVFKELKVHHANENIFYCPIAIMSALAMVYLGAKDSTRTQINKVVRFDKLPGFGDSIEAQCGTSVNVHSSLRDILNQITKPNDVYSFSLASRLYAEERYPILPEYLQCVKELYRGGLEPINFQTAADQARELINSWVESQTNGIIRNVLQPSSVDSQTAMVLVNAIVFKGLWEKAFKDEDTQAMPFRVTEQESKPVQMMYQIGLFRVASMASEKMKILELPFASGTMSMLVLLPDEVSGLEQLESIINFEKLTEWTSSNVMEERKIKVYLPRMKMEEKYNLTSVLMAMGITDVFSSSANLSGISSAESLKISQAVHAAHAEINEAGREVVGSAEAGVDAASVSEEFRADHPFLFCIKHIATNAVLFFGRCVSP
In the case of B2, the “induction of IFNγ production by OT-I CD8+ T cells” value (OT-I CD8+ T cells [4]; DC2.4 pulsed 3 hours with fractions 15 to 21, less than 5 μg/ml protein) is reported as “efficiently induced IFNγ production by CD8^+ T cells”, the “effectiveness on OT-I CD8+ T cells relative to free OVA” value (OT-I CD8+ T cells [4]; DC2.4 pulsed with series of doses, IFNγ secreted) is reported as “at least 100 times” and the “staining of DC2.4L cells with anti-OVA antibody after incubation with conjugate” value (cell surface HSP90; DC2.4L cells lacking cell surface HSP90, 30 μg/ml) is reported as “not recognized by the OVA monoclonal antibody”. The “staining of DC2.4 cells with anti-OVA antibody after incubation with conjugate” value (cell surface HSP90; DC2.4 cells expressing cell surface HSP90, 30 μg/ml) was “recognized by the anti-OVA monoclonal antibody” and the “expression level of CD44 on transferred OT-I CD8+ T cells” value (OT-I CD8+ T cells [5]) was “increased”.
